Changes are numbered by the printed parent chain. One block for each binder: values may come before it.
Tests used:
Assay in all cases: flow cytometry on transfected 293T cells, PE secondary antibody, geo mean
[1] = molecular target: T1, human CCR7 variant V123I (20100126473) (human, UniProt P32248 25-378)
T1 sequence: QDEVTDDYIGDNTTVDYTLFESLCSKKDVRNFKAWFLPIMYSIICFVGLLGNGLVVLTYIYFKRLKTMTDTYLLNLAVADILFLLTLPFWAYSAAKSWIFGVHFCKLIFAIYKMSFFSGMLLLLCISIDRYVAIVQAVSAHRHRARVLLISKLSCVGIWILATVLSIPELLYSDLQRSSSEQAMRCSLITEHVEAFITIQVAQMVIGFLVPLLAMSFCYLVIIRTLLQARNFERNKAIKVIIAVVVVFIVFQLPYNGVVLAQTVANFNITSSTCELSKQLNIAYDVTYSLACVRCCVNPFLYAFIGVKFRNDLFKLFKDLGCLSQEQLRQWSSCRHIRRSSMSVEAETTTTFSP

[2] = molecular target: T2, human CCR7 variant D35E (20100122625) (human, UniProt P32248 25-378)
T2 construct: Human CCR7 with the murine residue at position 35; also called D35 variant
T2 sequence: T1 sequence with D11E, I99V

[3] = molecular target: T3, human CCR7 variant L300T (20110018204) (human, UniProt P32248 25-378)
T3 sequence: T1 sequence with I99V, L276T

[4] = molecular target: T4, human CCR7 variant S204G (20100171269) (human, UniProt P32248 25-378)
T4 sequence: T1 sequence with I99V, S180G

[5] = molecular target: T5, human CCR7 variant A118E (20100130760) (human, UniProt P32248 25-378)
T5 sequence: T1 sequence with A94E, I99V

[6] = molecular target: T6, human CCR7 variant S295N (20110018205) (human, UniProt P32248 25-378)
T6 sequence: T1 sequence with I99V, S271N

[7] = molecular target: T7, wild-type human CCR7 (pcDNA3.1 Neo-hCCR7, 20100121357) (human, UniProt P32248 25-378)
T7 construct: Expressed on transfected 293T, CHO AM1/D or HEK293T cells; also called huCCR7; CCR7 receptor
T7 sequence: T1 sequence with I99V

- binding result [1]: binds
- binding result [2]: binds
- binding result [3]: binds
- binding result [4]: binds
- binding result [5]: binds
- binding result [6]: binds
B1: antibody 6B4.1 (antibody, V domains shown)
VH: QVQLVESGGGVVQPGRSLRLSCAASGFTFSSYGMHWVRQAPGKGLEWVAVIWYDGSKKYYADSVKGRFTISRDNSKNTLYLQMNRLRAEDTAVYYCARDGGIAVFLQDNWFDPWGQGTLVTVSS
VL: SYELTQPPSVSVSPGQRARITCSGDKLGDKYASWYQQKPGQSPLLVIYQDSKRPSGIPERFSGSNSGNTATLTISGTQAMDEADYYCQAWGSSTVIFGGGTKLTVLG
notes: Human antibody from XenoMouse hybridoma; Light = 2 and heavy = 42 is inferred from the order of the listing (light chains first)

- binding result [1]: binds
- binding result [2]: binds
- binding result [3]: binds
- binding result [7]: binds
- binding result [4]: binds
- binding result [5]: binds
- binding result [6]: binds
B2: antibody 6B5.1 (antibody, human IgG2, lambda, V domains shown)
VH: B1 VH with S30R, Q107E
VL: B1 VL with R19S, S51G
notes: Human antibody from XenoMouse hybridoma; Light = 18 and heavy = 50 is inferred from the order of the listing

Reference: patent US20170342155A1 (Amgen, published 2017)
